Measured values: the supplement of paper PMC6755084

Each sequence was assayed on F1*sub RNA substrate (template-directed ligation) (assay: fraction ligated after 30 min (ligated reads / total reads); higher = more ligase activity; sequences stand for … in GAGACCGCAACTGAAAAGTTGT…AGTTCTGCACGTAGAAGCAAAAGGC). Conditions: 42 °C.
How it was run: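 Templates from an oligo pool were PCR-amplified, transcribed with T7 and gel-purified to give the ribozyme variants. Ligated and unligated products were separated on gel, reverse transcribed using barcoded primers, and read on a MiSeq. A quality filter of ≥20 was applied to core bases. Fraction ligated was taken as ligated reads as a share of all reads per variant.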
In the case of “TATCACTTGTGTAGACACTTTGGAGGGTTGA [3d1740]”, the fraction ligated is reported as 0.0783. For “TATCACTTGTGTAGACACTTTGGATGGGTTA [3d1742]”, the fraction ligated was 0.828. “TATCACTTGTGTAGACACTTTGGATGGGTTG [3d1743]” was tested, and the fraction ligated was 0.863. “TATCACTTGTGTAGACACTTTGGATGGGTTGA [2d181]” gave a fraction ligated of 0.871. For “TATCACTTGTGTAGACACTTTGGATGGTTGA [3d1741]”, the fraction ligated was 0.252. For “TATCACTTGTGTAGACACTTTGGTGGGTTGA [3d1739]”, the fraction ligated was 0.105. “TATCACTTGTGTAGACATTTGGATGGGTTGA [3d1736]” gave a fraction ligated of 0.883. Sequence “TATCACTTGTGTAGACCTTTGGATGGGTTGA [3d1735]” has a fraction ligated of 0.845. “TATCACTTGTGTAGCACTTTGGATGGGTTGA [3d1733]” was tested, and the fraction ligated was 0.841. With “TATCACTTGTGTGACACTTTGGATGGGTTGA [3d1731]” the fraction ligated was 0.826. With “TATCACTTGTTAAACACTTTGGATGGGTTGA [3d1706]” the fraction ligated was 0.842. “TATCACTTGTTAAGAACTTTGGATGGGTTGA [3d1708]” showed a fraction ligated of 0.874. “TATCACTTGTTAAGACACTTGGATGGGTTGA [3d1711]” gave a fraction ligated of 0.784. With “TATCACTTGTTAAGACACTTTGATGGGTTGA [3d1712]” the fraction ligated was 0.786. Work on “TATCACTTGTTAAGACACTTTGGAGGGTTGA [3d1714]” yielded a fraction ligated of 0.111. Work on “TATCACTTGTTAAGACACTTTGGATGGGTTA [3d1716]” yielded a fraction ligated of 0.778. “TATCACTTGTTAAGACACTTTGGATGGGTTG [3d1717]” was tested, and the fraction ligated was 0.83. For “TATCACTTGTTAAGACACTTTGGATGGGTTGA [2d179]”, the fraction ligated was 0.859. In the case of “TATCACTTGTTAAGACACTTTGGATGGTTGA [3d1715]”, the fraction ligated is reported as 0.348. In the case of “TATCACTTGTTAAGACACTTTGGTGGGTTGA [3d1713]”, the fraction ligated is reported as 0.111. In the case of “TATCACTTGTTAAGACATTTGGATGGGTTGA [3d1710]”, the fraction ligated is reported as 0.835. Work on “TATCACTTGTTAAGACCTTTGGATGGGTTGA [3d1709]” yielded a fraction ligated of 0.785. With “TATCACTTGTTAAGCACTTTGGATGGGTTGA [3d1707]” the fraction ligated was 0.797. For “TATCACTTGTTAGACACTTTGGATGGGTTGA [3d1705]”, the fraction ligated was 0.842. For “TATCACTTTCAAGACACTTTGGATGGGTTGA [3d1479]”, the fraction ligated was 0.772. For “TATCACTTTCGAAACACTTTGGATGGGTTGA [3d1494]”, the fraction ligated was 0.795. “TATCACTTTCGAAGAACTTTGGATGGGTTGA [3d1496]” showed a fraction ligated of 0.843. With “TATCACTTTCGAAGACACTTGGATGGGTTGA [3d1499]” the fraction ligated was 0.779. In the case of “TATCACTTTCGAAGACACTTTGATGGGTTGA [3d1500]”, the fraction ligated is reported as 0.767. “TATCACTTTCGAAGACACTTTGGAGGGTTGA [3d1502]” gave a fraction ligated of 0.0243. “TATCACTTTCGAAGACACTTTGGATGGGTTA [3d1504]” gave a fraction ligated of 0.382. Sequence “TATCACTTTCGAAGACACTTTGGATGGGTTG [3d1505]” has a fraction ligated of 0.792. For “TATCACTTTCGAAGACACTTTGGATGGGTTGA [2d149]”, the fraction ligated was 0.797. “TATCACTTTCGAAGACACTTTGGATGGTTGA [3d1503]” showed a fraction ligated of 0.0707. In the case of “TATCACTTTCGAAGACACTTTGGTGGGTTGA [3d1501]”, the fraction ligated is reported as 0.0423. “TATCACTTTCGAAGACATTTGGATGGGTTGA [3d1498]” showed a fraction ligated of 0.769. For “TATCACTTTCGAAGACCTTTGGATGGGTTGA [3d1497]”, the fraction ligated was 0.765. Sequence “TATCACTTTCGAAGCACTTTGGATGGGTTGA [3d1495]” has a fraction ligated of 0.766. “TATCACTTTCGAGACACTTTGGATGGGTTGA [3d1493]” showed a fraction ligated of 0.79. With “TATCACTTTCGTAAAACTTTGGATGGGTTGA [3d1519]” the fraction ligated was 0.823. Work on “TATCACTTTCGTAAACACTTGGATGGGTTGA [3d1522]” yielded a fraction ligated of 0.778. In the case of “TATCACTTTCGTAAACACTTTGATGGGTTGA [3d1523]”, the fraction ligated is reported as 0.768. Sequence “TATCACTTTCGTAAACACTTTGGAGGGTTGA [3d1525]” has a fraction ligated of 0.0183. For “TATCACTTTCGTAAACACTTTGGATGGGTTA [3d1527]”, the fraction ligated was 0.575. For “TATCACTTTCGTAAACACTTTGGATGGGTTG [3d1528]”, the fraction ligated was 0.776. For “TATCACTTTCGTAAACACTTTGGATGGTTGA [3d1526]”, the fraction ligated was 0.0497. “TATCACTTTCGTAAACACTTTGGTGGGTTGA [3d1524]” was tested, and the fraction ligated was 0.0319. For “TATCACTTTCGTAAACATTTGGATGGGTTGA [3d1521]”, the fraction ligated was 0.787. “TATCACTTTCGTAAACCTTTGGATGGGTTGA [3d1520]” was tested, and the fraction ligated was 0.788. With “TATCACTTTCGTAACACTTTGGATGGGTTGA [3d1507]” the fraction ligated was 0.796. Work on “TATCACTTTCGTAAGAACTTGGATGGGTTGA [3d1540]” yielded a fraction ligated of 0.829. “TATCACTTTCGTAAGAACTTTGATGGGTTGA [3d1541]” was tested, and the fraction ligated was 0.829. “TATCACTTTCGTAAGAACTTTGGAGGGTTGA [3d1543]” was tested, and the fraction ligated was 0.126. Sequence “TATCACTTTCGTAAGAACTTTGGATGGGTTA [3d1545]” has a fraction ligated of 0.851. Sequence “TATCACTTTCGTAAGAACTTTGGATGGGTTG [3d1546]” has a fraction ligated of 0.868. “TATCACTTTCGTAAGAACTTTGGATGGTTGA [3d1544]” showed a fraction ligated of 0.643. For “TATCACTTTCGTAAGAACTTTGGTGGGTTGA [3d1542]”, the fraction ligated was 0.342. “TATCACTTTCGTAAGAATTTGGATGGGTTGA [3d1539]” was tested, and the fraction ligated was 0.835. “TATCACTTTCGTAAGACACTGGATGGGTTGA [3d1561]” gave a fraction ligated of 0.774. “TATCACTTTCGTAAGACACTTGATGGGTTGA [3d1562]” gave a fraction ligated of 0.787. With “TATCACTTTCGTAAGACACTTGGAGGGTTGA [3d1564]” the fraction ligated was 0.085. With “TATCACTTTCGTAAGACACTTGGATGGGTTA [3d1566]” the fraction ligated was 0.477. “TATCACTTTCGTAAGACACTTGGATGGGTTG [3d1567]” showed a fraction ligated of 0.773. “TATCACTTTCGTAAGACACTTGGATGGTTGA [3d1565]” was tested, and the fraction ligated was 0.134. “TATCACTTTCGTAAGACACTTGGTGGGTTGA [3d1563]” gave a fraction ligated of 0.171. Work on “TATCACTTTCGTAAGACACTTTATGGGTTGA [3d1568]” yielded a fraction ligated of 0.0429. Work on “TATCACTTTCGTAAGACACTTTGAGGGTTGA [3d1570]” yielded a fraction ligated of 0.0593. In the case of “TATCACTTTCGTAAGACACTTTGATGGGTTA [3d1572]”, the fraction ligated is reported as 0.0837. Work on “TATCACTTTCGTAAGACACTTTGATGGGTTG [3d1573]” yielded a fraction ligated of 0.731. Work on “TATCACTTTCGTAAGACACTTTGATGGTTGA [3d1571]” yielded a fraction ligated of 0.0696. With “TATCACTTTCGTAAGACACTTTGGAGGGTTA [3d1579]” the fraction ligated was 0.04. Work on “TATCACTTTCGTAAGACACTTTGGAGGGTTG [3d1580]” yielded a fraction ligated of 0.0276. In the case of “TATCACTTTCGTAAGACACTTTGGAGGTTGA [3d1578]”, the fraction ligated is reported as 0.0266. In the case of “TATCACTTTCGTAAGACACTTTGGATGGGTT [3d1583]”, the fraction ligated is reported as 0.22. In the case of “TATCACTTTCGTAAGACACTTTGGATGGGTTA [2d161]”, the fraction ligated is reported as 0.751. “TATCACTTTCGTAAGACACTTTGGATGGGTTG [2d162]” was tested, and the fraction ligated was 0.777. Work on TATCACTTTCGTAAGACACTTTGGATGGGTTGA [1d8] yielded a fraction ligated of 0.815. Sequence “TATCACTTTCGTAAGACACTTTGGATGGTTA [3d1581]” has a fraction ligated of 0.0764. “TATCACTTTCGTAAGACACTTTGGATGGTTG [3d1582]” showed a fraction ligated of 0.0551. “TATCACTTTCGTAAGACACTTTGGATGGTTGA [2d160]” gave a fraction ligated of 0.114. For “TATCACTTTCGTAAGACACTTTGGGGGTTGA [3d1574]”, the fraction ligated was 0.0345. “TATCACTTTCGTAAGACACTTTGGTGGGTTA [3d1576]” gave a fraction ligated of 0.0309.
